Laboratory results published in patent US20130039933A1 (UNIVERSITY OF MIAMI, published 2013).

B1: control vector (AD) (other, yeast, UniProt P04386 768-881, looked up)
chain: ANFNQSGNIADSSLSFTFTNSSNGPNLITTQTNSQALSQPIASSNVHDNFMNNEITASKIDDGNNSKPLSPGWTDQTAYNAFGITTGMFNTTTMDDVYNYLFDDEDTPPNPKKE
notes: Yeast two-hybrid negative control
B2: Full length DAD1 (defender against apoptotic cell death) fused to the GAL4 activation domain (other, human, UniProt P61803 1-113, looked up, not shown: large carriers)
chain: MSASVVSVISRFLEEYLSSTPQRLKLLDAYLLYILLTGALQFGYCLLVGTFPFNSFLSGFISCVGSFILAVCLRIQINPQNKADFQGISPERAFADFLFASTILHLVVMNFVG
notes: Yeast two-hybrid prey; also called DAD I

Experiments:
[1] = target: T1, BD-hSTING-C (carboxyl region of STING, amino acids 173-379, fused to the binding domain of yeast GAL4) (yeast; human, UniProt P04386 1-147); test: yeast two-hybrid, high stringency plates (-Trp, -Leu, -Ade, -His)
T1 construct: Yeast two-hybrid bait; also called pGBK-T7-hSTING-C; pGBKT7-STING C-terminal

[2] = target: T1, BD-hSTING-C (carboxyl region of STING, …); test: yeast two-hybrid screen

Binder | binding result [1] | binding result [2]
B1 | no binding | 
B2 |  | binds
